What was measured:
GST-Tvactin [1] = molecular target: T1, GST-Tvactin (T. vaginalis, UniProt A0A8U0WPZ0 1-376); experiment: ELISA; solid-phase binding: 2.5 μM G-actin in G-buffer coated on a 96-well microplate; His-TvFACPα or His-△237 at 0-80 μM, 4°C overnight; anti-6×His detection, OD450; Scatchard plots; conditions: both partners purified
T1 construct: The same construct stands as GST-Tvactin on beads (pull-down), as G-actin (in G-buffer) and as F-actin (polymer, in F-buffer); the assays tell these apart; No removal of GST is described; also called GST fused-α-actin; G-actin; source: polymerized to F-actin in F-buffer), purified on glutathione-conjugated sepharose beads

GST-Tvactin [2] = molecular target: T1, GST-Tvactin; experiment: ELISA; solid-phase binding: 2.5 μM F-actin in F-buffer coated on a 96-well microplate; His-TvFACPα or His-△237 at 0-80 μM, 4°C overnight; anti-6×His detection, OD450; Scatchard plots; conditions: both partners purified
[3] = molecular target: T2, α-actin, endogenous (T. vaginalis) (T. vaginalis (endogenous in TH17 …, UniProt A0A8U0WPZ0 1-376)); experiment: co-sedimentation; actin biochemical fractionation of trophozoite lysates (Cytoskeleton Inc kit): 100,000× g for 1 hr, F-actin and associated proteins in the pellet, G-actin in the supernatant; western blotting; non-transgenic and transgenic TH17, flagellate and amoeboid forms, DMSO or TBB treatment; conditions: partners not purified
T2 construct: α-actin of Trichomonas vaginalis detected by an anti-α-actin antibody as a 42-kDa band; In the cell fractionation it stands as F-actin in the 100,000× g pellet; also called 42-kDa α-actin; F-actin

B1: His-TvFACPα (natural protein)
chain: MSESENIKIIKTFLANAPPGEYEQCTAALRSIVNDEDLINRARSETLKTWAEEECIVVDVEDHKVIICKEACQRDGIYVDPVTSSLITYDFESRIATPIGDQANMSDFAKELQEELTAYAKNAYKENAAAGVYDTNNGIVIVLRGSSISLKNFRTGKTVAKYTLSKSGSLEGKIVSIQHFFEKGNAVCQHDGDCNTTCSFGDAKSVVKAIRTFEDEWLADYKTTLEKIGTNVLFQLRRKFPYSKQKINWQQEITVGGGMKC
notes: also called His-TvFACPα wild type; Wt; source: recombinant from pET28-His-TvFACPα, purified to homogeneity (protocol of the supplier, QIAGEN)
Kd (GST-Tvactin [1]): 4.45 µM
Kd (GST-Tvactin [2]): 8.36 µM

B2: HA-TvFACPα (natural protein)
chain: MSESENIKIIKTFLANAPPGEYEQCTAALRSIVNDEDLINRARSETLKTWAEEECIVVDVEDHKVIICKEACQRDGIYVDPVTSSLITYDFESRIATPIGDQANMSDFAKELQEELTAYAKNAYKENAAAGVYDTNNGIVIVLRGSSISLKNFRTGKTVAKYTLSKSGSLEGKIVSIQHFFEKGNAVCQHDGDCNTTCSFGDAKSVVKAIRTFEDEWLADYKTTLEKIGTNVLFQLRRKFPYSKQKINWQQEITVGGGMKC
notes: also called HA-TvFACPα wild type; source: T. vaginalis TH17 trophozoites, transgenic (Flp-HA-TvFACPα), in lysate
co-sedimented with F-actin, fold of the endogenous form of the non-transfectant [3]: ~2 fold

From article doi:10.1101/2022.06.09.495492, “An atypical F-actin capping protein modulates cytoskeleton behaviors crucial to colonization of Trichomonas vaginalis” (bioRxiv, 2022)
